Laboratory results as given in publication PMC2116103.

Target: IGF1 receptor on embryonic chick spinal cord motoneurons (chick (endogenous in E6 spinal cord motoneurons))

Row | neurite growth from E6 chick motoneurons in vitro, half-maximal response [nM] | neurite growth from E6 chick motoneurons in vitro, half-maximal effect [nM] | Substance
1 | 0.2 |  | Recombinant human IGF1 (insulin-like growth factor 1), unlabeled (from UniProt P05019 22-118) (ligand)
2 |  | 0.2 | Highly purified human IGF2 (insulin-like growth factor 2), unlabeled (from UniProt P01344 25-91) (ligand)
3 |  | 20 | Bovine pancreatic insulin (ligand)
